For one series, the target named is T1, 3xFlag-PAK6 S531N (UniProt Q9NQU5 1-681, S531N, autophosphorylated; phospho-Ser560 monitored by western blot).
T1 construct: PAK6, constitutively active variant; construct as described in Civiero et al., 2015; also called active variant S531N; source: HEK293T, transfected; in lysate (immunoprecipitation) and immunopurified (overlay)
Kind of series: far-Western, overlay or dot blot; immunopurified Flag-tagged PAK6 or LRRK2 separated by SDS-PAGE and blotted onto nitrocellulose; incubated with purified His-14-3-3s at 1 μg/ml in 5% BSA in TBS-T overnight at 4°C; anti-His detection. Particulars: both partners purified.

In series [1] the target is T2, 3xFlag-PAK6 wild-type (UniProt Q9NQU5 1-681, autophosphorylated; phospho-Ser560 monitored by western blot).
T2 construct: construct as described in Civiero et al., 2015; source: HEK293T, transfected; in lysate (immunoprecipitation) and immunopurified on anti-Flag resin (pull-down, overlay)
T2 sequence (Q9NQU5 whole entry): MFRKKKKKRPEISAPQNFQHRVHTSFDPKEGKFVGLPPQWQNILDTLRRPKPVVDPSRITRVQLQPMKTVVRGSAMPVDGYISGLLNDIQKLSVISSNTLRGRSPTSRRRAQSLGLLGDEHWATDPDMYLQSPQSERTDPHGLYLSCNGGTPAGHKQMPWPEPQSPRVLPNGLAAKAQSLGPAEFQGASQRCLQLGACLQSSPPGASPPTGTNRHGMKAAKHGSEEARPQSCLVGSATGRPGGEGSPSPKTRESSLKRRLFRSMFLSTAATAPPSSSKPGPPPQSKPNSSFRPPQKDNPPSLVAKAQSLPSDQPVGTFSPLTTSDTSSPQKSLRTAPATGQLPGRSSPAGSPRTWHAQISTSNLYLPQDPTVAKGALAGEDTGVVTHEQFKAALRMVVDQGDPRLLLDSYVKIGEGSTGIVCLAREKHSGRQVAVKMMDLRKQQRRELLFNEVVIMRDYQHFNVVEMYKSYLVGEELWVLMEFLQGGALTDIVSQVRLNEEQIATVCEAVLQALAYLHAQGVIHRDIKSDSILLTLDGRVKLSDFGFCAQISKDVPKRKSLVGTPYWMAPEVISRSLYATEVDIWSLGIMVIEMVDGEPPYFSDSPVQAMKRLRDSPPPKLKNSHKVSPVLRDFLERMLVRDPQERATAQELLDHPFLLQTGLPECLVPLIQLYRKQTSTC
Kind of series: pull-down; Flag-purified PAK6 bound to anti-Flag resin incubated for 2 h with purified His-14-3-3 isoforms (1 μM); bound 14-3-3s revealed with anti-His antibody. Particulars: both partners purified.

Series [2] deals with the molecule itself. In words: native gel or EMSA; blue native gel (4-16%) of purified His-14-3-3γ wild-type, S59D and T145D; 5 μg of protein loaded; Coomassie staining. For orientation: A gel shift assay detects complexes by their altered migration in electrophoresis.
The target in series [3] is T2, 3xFlag-PAK6 wild-type. In words: far-Western, overlay or dot blot; immunopurified Flag-tagged PAK6 or LRRK2 separated by SDS-PAGE and blotted onto nitrocellulose; incubated with purified His-14-3-3s at 1 μg/ml in 5% BSA in TBS-T overnight at 4°C; anti-His detection. Particulars: both partners purified.

Residue numbers refer to the chain shown, from its start. Names may count otherwise.

T1 sequence (Q9NQU5 whole entry S531N): as the sequence (Q9NQU5 whole entry) above, with S531N counted along it

B1: 6xHis-14-3-3γ wild-type (natural protein, human, UniProt P61981 1-247, looked up)
chain: MVDREQLVQKARLAEQAERYDDMAAAMKNVTELNEPLSNEERNLLSVAYKNVVGARRSSWRVISSIEQKTSADGNEKKIEMVRAYREKIEKELEAVCQDVLSLLDNYLIKNCSETQYESKVFYLKMKGDYYRYLAEVATGEKRATVVESSEKAYSEAHEISKEHMQPTHPIRLGLALNYSVFYYEIQNAPEQACHLAKTAFDDAIAELDTLNEDSYKDSTLIMQLLRDNLTLWTSDQQDDDGGEGNN
notes: 14-3-3 protein gamma, cloned in pET28a(+) by PCR from a mammalian expression plasmid (Prof. Dario Alessi); runs around the size of the dimer on blue native gels; also called recombinant 14-3-3γ; 14-3-3 gamma; source: E. coli BL21(DE3), purified (IMAC, ProBond resin; PD10 desalting); not shown: 6xHis, N-terminal, kept
Take B1: the “fold affinity against PAK6 wild-type” value in the series with 3xFlag-PAK6 S531N was 2 fold. In addition, the binding result with 3xFlag-PAK6 wild-type [1] is “binds”.

B2: His-14-3-3γ T145D (natural protein, human, UniProt P61981 1-247, looked up)
chain: B1 chain with T145D
notes: 14-3-3 protein gamma, phosphomimetic mutant; also called S145D (as once printed); source: E. coli BL21(DE3), purified (IMAC); not shown: 6xHis, N-terminal, kept
Take B2: in series [2], the binding result was “binds”.

B3: 6xHis-14-3-3 theta (natural protein, human, UniProt P27348 1-245, looked up)
chain: MEKTELIQKAKLAEQAERYDDMATCMKAVTEQGAELSNEERNLLSVAYKNVVGGRRSAWRVISSIEQKTDTSDKKLQLIKDYREKVESELRSICTTVLELLDKYLIANATNPESKVFYLKMKGDYFRYLAEVACGDDRKQTIDNSQGAYQEAFDISKKEMQPTHPIRLGLALNFSVFYYEILNNPELACTLAKTAFDEAIAELDTLNEDSYKDSTLIMQLLRDNLTLWTSDSAGEECDAAEGAEN
notes: 14-3-3 protein theta, cloned in pET28a(+) by PCR from a mammalian expression plasmid (Prof. Dario Alessi); also called His-14-3-3θ; source: E. coli BL21(DE3), purified (IMAC, ProBond resin; PD10 desalting); not shown: 6xHis, N-terminal, kept
For the molecule B3, the binding result in the series with 3xFlag-PAK6 wild-type [3] is “binds”.

B4: 6xHis-14-3-3 zeta (natural protein, human, UniProt P63104 1-245, looked up)
chain: MDKNELVQKAKLAEQAERYDDMAACMKSVTEQGAELSNEERNLLSVAYKNVVGARRSSWRVVSSIEQKTEGAEKKQQMAREYREKIETELRDICNDVLSLLEKFLIPNASQAESKVFYLKMKGDYYRYLAEVAAGDDKKGIVDQSQQAYQEAFEISKKEMQPTHPIRLGLALNFSVFYYEILNSPEKACSLAKTAFDEAIAELDTLSEESYKDSTLIMQLLRDNLTLWTSDTQGDEAEAGEGGEN
notes: 14-3-3 protein zeta, cloned in pET28a(+) by PCR from a mammalian expression plasmid (Prof. Dario Alessi); also called His-14-3-3ζ; source: E. coli BL21(DE3), purified (IMAC, ProBond resin; PD10 desalting); not shown: 6xHis, N-terminal, kept
Take B4: the binding result with 3xFlag-PAK6 wild-type [3] is “binds”.

The values above are taken from paper PMC5735978, “PAK6 Phosphorylates 14-3-3γ to Regulate Steady State Phosphorylation of LRRK2” (Frontiers in Molecular Neuroscience, 2017).
